Data on two proteins can be found in PMC11430254, “Insights into Transient Dimerisation of Carnitine/Acylcarnitine Carrier (SLC25A20) from Sarkosyl/PAGE, Cross-Linking Reagents, and Comparative Modelling Analysis” (Biomolecules, 2024).

Data set [1] deals with the molecule itself. The experiment in a line: cross-linking; purified CAC reconstituted in liposomes (0.5 µg protein), 0.5 mM Sulfo-MBS (spacer arm 9.9 Å), 30 min at room temperature, quenched with 10 mM DTE and 20 mM Tris-HCl pH 8.0; SDS-PAGE and immunoblot.
Data set [2] concerns the molecule itself. Kind of data set: native gel or EMSA; Sarkosyl/PAGE: 14% polyacrylamide, 0.05% w/v Sarkosyl in gel, samples and running buffer, 100 Volt, 4 °C; purified CAC in Triton X-100 or extracted from proteoliposomes with 0.05% Sarkosyl; silver nitrate staining; 59 kDa band excised and run on SDS-PAGE with immunoblot.
Data set [3] deals with the molecule itself. Kind of data set: cross-linking; recombinant CAC WT alone (100) or mixed with C-lessV (75/25, 50/50) reconstituted in liposomes, incubated with Sulfo-SMPB; SDS-PAGE and immunoblot.

B1: native carnitine/acylcarnitine carrier purified from isolated rat liver mitochondria (natural protein, UniProt P97521 1-301, looked up)
chain: MAEEPKPISPLKNLLAGGFGGVCLVFVGHPLDTVKVRLQTQPPSLPGQPPMYSGTIDCFRKTLFREGITGLYRGMAAPIIGVTPMFAVCFFGFGLGKRLQQKSPEDELTYPQLFTAGMLSGVFTTGIMTPGERIKCLLQIQASSGKNKYSGTLDCAKKLYQEFGIRGFYKGTALTLMRDVPASGMYFMTYEWLKNLFTPQGKSVHDLSVPRVLVAGGFRGIFNWVVAIPPDVLKSRFQTAPPGKYPNGFRDVLRELIREEGVTSLYKGFNAVMIRAFPANAACFLGFEIPMKILNWIAPNL
notes: mitochondrial carnitine/acylcarnitine carrier (CAC, SLC25A20), rat, native protein from liver mitochondria; single band of apparent molecular weight 32,500 Da on SDS gel; Integral membrane protein; also called CAC; SLC25A20; source: purified from rat liver mitoplasts (3% Triton X-100 extract, hydroxyapatite, celite with cardiolipin); used in Triton X-100 or reconstituted in liposomes
Take B1: the “stoichiometry N” value in data set [1] was 2; in data set [2], approximately 2.

B2: recombinant carnitine/acylcarnitine carrier wild type (natural protein, UniProt P97521 1-301, looked up)
chain: MAEEPKPISPLKNLLAGGFGGVCLVFVGHPLDTVKVRLQTQPPSLPGQPPMYSGTIDCFRKTLFREGITGLYRGMAAPIIGVTPMFAVCFFGFGLGKRLQQKSPEDELTYPQLFTAGMLSGVFTTGIMTPGERIKCLLQIQASSGKNKYSGTLDCAKKLYQEFGIRGFYKGTALTLMRDVPASGMYFMTYEWLKNLFTPQGKSVHDLSVPRVLVAGGFRGIFNWVVAIPPDVLKSRFQTAPPGKYPNGFRDVLRELIREEGVTSLYKGFNAVMIRAFPANAACFLGFEIPMKILNWIAPNL
notes: also called CAC WT; WT; source: overexpressed from cDNA cloned in pMW7, purified, reconstituted in liposomes
Consider B2, for which the “stoichiometry N” value in data set [3] stood at 2.
